This is an account of results in US20150098945A1 (Daiichi Sankyo, published 2015).

Test [1] deals with T1, recombinant human ROBO4 extracellular region polypeptide rROBO4-ECD (human, UniProt Q8WZ75 28-461).
T1 construct: Expressed from pEF6/V5-His-TOPO in FreeStyle 293-F cells; also called human ROBO4-ECD
T1 sequence: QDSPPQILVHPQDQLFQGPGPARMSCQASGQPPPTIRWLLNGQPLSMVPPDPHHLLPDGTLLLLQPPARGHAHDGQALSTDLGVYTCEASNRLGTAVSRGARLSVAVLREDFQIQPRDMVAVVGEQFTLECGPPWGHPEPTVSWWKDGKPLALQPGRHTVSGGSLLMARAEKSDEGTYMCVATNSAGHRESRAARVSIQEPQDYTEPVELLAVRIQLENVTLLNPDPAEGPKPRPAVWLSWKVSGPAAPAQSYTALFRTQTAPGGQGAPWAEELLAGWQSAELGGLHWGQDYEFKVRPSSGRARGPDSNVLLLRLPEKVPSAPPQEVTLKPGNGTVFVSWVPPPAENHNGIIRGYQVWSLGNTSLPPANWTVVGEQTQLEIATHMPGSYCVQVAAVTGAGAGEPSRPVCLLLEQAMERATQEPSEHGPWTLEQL
The test can be described thus: SPR (Biacore 3000), antibody captured via anti-human IgG on CM5, rROBO4-ECD as analyte, 1:1 model. The procedure: The dissociation constant between each antibody and rROBO4-ECD was determined with the antibody immobilized as a ligand and the antigen as an analyte using Biacore 3000 (manufactured by GE Healthcare Bio-Sciences Corp.). Approximately 80 RU of the antibody was bound via an anti-human IgG antibody (manufactured by GE Healthcare Bio-Sciences Corp.) immobilized on a sensor chip CM5 (manufactured by GE Healthcare Bio-Sciences Corp.) by an amine coupling method. The running buffer used was PBS containing 0.05% Surfactant P20. Dilution series solutions (0.1-200 nM) of the antigen were added at a flow rate of 30 μL/min. for 300 seconds onto the antibody-bound chip. Subsequently, a dissociation phase was monitored for 300 seconds. 3 M MgCl₂ was added thereto as a regeneration solution at a flow rate of 10 μL/min. for 30 seconds. Data was analyzed using the 1:1 binding model of analysis software (BIAevaluation Software, version 4.1) to calculate an association rate constant kon, a dissociation rate constant koff, and a dissociation constant (KD; KD=koff/kon).
A general note: SPR reads the build-up and loss of mass on a sensor chip optically.

Test [2] addresses T2, human ROBO3 (pCI-hROBO3-transfected HEK293 cells) (human, UniProt Q96MS0 21-1386).
T2 sequence: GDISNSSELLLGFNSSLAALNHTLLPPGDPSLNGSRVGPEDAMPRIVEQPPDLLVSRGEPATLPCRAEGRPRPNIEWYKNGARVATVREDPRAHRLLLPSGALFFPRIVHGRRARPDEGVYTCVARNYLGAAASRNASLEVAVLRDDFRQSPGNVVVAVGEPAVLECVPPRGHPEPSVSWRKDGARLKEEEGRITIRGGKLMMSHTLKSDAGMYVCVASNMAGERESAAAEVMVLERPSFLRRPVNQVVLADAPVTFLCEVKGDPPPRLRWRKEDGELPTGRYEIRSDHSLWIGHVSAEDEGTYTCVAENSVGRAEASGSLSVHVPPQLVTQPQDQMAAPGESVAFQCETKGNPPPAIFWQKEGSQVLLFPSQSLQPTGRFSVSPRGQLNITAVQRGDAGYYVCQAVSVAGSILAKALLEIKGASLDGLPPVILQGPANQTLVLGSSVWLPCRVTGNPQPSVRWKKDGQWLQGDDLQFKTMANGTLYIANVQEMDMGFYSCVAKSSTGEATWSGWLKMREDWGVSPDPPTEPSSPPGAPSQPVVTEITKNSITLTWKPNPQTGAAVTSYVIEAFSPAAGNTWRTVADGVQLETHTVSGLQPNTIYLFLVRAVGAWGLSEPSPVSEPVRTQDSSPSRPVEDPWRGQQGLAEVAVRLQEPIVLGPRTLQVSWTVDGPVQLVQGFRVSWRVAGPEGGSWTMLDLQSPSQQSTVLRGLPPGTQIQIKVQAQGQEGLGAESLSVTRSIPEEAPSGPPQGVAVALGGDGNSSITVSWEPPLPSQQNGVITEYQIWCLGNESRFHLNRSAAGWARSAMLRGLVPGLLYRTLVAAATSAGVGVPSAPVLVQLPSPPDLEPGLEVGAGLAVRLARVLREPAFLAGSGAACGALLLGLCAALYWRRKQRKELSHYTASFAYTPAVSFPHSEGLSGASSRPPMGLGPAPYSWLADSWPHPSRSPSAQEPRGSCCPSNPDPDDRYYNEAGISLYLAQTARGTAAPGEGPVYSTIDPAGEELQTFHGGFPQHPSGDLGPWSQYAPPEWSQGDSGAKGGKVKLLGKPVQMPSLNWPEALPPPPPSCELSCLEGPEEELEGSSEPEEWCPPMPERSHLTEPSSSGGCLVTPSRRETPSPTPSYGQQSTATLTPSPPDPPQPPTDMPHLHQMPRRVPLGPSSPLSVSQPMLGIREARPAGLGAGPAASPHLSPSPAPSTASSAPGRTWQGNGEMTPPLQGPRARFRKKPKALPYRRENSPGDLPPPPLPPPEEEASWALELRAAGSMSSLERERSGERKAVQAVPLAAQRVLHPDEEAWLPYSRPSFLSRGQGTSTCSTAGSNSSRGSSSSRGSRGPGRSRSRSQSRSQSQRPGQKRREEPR
The test can be described thus: flow cytometry (FC500), HEK293 cells transfected with pCI-hROBO3, FITC goat anti-human IgG Fc; control histogram IgG (human IgG).

The target in test [3] is N-terminal FLAG-tagged human ROBO1 (pCI-FLAG-hROBO1-transfected HEK293 cells) (human, UniProt Q9Y6N7 58-1651). Nature of the test: flow cytometry (FC500), HEK293 cells transfected with pCI-FLAG-hROBO1, FITC goat anti-human IgG Fc; control histogram IgG (human IgG).
Sequence of N-terminal FLAG-tagged human ROBO1 (pCI-FLAG-hROBO1-transfected HEK293 cells) (Q9Y6N7 other isoform, or with tags, fused parts or gaps): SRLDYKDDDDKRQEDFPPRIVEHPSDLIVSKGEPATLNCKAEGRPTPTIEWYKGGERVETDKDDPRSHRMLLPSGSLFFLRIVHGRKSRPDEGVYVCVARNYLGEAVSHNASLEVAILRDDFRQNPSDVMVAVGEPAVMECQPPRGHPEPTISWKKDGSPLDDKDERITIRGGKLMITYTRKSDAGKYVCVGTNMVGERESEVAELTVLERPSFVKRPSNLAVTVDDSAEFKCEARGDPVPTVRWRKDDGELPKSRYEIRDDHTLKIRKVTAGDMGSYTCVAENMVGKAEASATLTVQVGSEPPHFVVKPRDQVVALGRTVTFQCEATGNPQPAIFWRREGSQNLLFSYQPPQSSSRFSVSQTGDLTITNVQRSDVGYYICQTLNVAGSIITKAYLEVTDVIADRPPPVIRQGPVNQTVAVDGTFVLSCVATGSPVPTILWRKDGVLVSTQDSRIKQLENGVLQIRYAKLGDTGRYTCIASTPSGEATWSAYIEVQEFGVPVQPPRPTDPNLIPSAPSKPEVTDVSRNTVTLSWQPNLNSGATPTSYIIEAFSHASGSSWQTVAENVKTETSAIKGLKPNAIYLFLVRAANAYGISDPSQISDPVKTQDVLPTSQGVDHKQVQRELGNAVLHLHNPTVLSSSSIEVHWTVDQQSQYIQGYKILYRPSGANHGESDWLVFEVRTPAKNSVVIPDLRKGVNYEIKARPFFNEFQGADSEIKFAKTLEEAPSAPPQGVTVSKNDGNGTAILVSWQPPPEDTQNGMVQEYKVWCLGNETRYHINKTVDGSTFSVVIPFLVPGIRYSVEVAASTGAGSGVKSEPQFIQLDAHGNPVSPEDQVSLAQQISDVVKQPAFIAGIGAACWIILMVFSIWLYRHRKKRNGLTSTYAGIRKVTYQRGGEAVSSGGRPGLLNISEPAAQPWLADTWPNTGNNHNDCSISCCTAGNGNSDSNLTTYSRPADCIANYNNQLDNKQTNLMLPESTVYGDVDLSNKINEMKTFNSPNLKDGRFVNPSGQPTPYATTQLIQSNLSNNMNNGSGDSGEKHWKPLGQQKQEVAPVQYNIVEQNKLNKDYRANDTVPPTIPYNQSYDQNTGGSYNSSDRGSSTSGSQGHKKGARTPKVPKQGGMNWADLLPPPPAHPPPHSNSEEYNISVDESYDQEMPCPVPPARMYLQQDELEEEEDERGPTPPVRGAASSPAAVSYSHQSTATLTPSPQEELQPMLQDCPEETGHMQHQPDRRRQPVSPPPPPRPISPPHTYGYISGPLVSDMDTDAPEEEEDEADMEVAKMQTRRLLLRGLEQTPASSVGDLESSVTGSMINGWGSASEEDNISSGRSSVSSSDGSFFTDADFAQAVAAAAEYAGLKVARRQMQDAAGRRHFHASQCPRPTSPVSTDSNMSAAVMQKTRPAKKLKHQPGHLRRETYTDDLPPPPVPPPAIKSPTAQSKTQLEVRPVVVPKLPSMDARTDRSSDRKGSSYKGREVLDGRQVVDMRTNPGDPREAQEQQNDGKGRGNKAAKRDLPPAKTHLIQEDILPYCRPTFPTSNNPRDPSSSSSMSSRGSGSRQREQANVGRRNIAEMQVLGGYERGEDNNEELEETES

B1: humanized MAb1 antibody H-1143 (antibody, human IgG2, kappa, V domains shown)
VH: EVQLVESGGGLVQPGGSLRLSCAASGFTFSTYAMSWVRQAPGKGLEWVATISQGGTYTYYPDSVKGRFTISRDNAKNTLYLQMNSLRAEDTAVYYCARLIYYDYLDYWGQGTLVTVSS
VL: DIVMTQSPLSLPVTLGEPASISCRSSQSLENENKNLYLNWYLQKPGQSPQLLIYRVSNRFSGVPDRFSGSGSGTDFTLKISRVEAEDVGVYYCLQVTHVPWTFGPGTKVDIKR
notes: Human IgG2 / kappa constant regions; also called hMAb1-H2-type heavy chain + hMAb1-L2-type light chain
Take B1: in test [1], the Kd (commonly the constant that tells how readily two partners part at equilibrium) was determined as 3.5 nM. In addition, the binding result in test [2] and in test [3] was “no binding (tested: 10 µg/mL)” throughout.

B2: humanized MAb1 antibody H-2140 (antibody, human IgG2, kappa, V domains shown)
VH: EVQLVESGGGLVQPGGSLRLSCAASGFTFSTYAMSWVRQAPGKRLEWVATISQGGTYTYYPDSVKGRFTISRDNAKNTLYLQMNSLRAEDTAVYYCARLIYYDYLDYWGQGTLVTVSS
VL: DIVMTQSPLSLPVTLGEPASISCRSSQSLENSNGNTYLNWYLQKPGQSPQLLIYRVSNRFSGVPDRFSGSGSGTDFTLKISRVEAEDVGVYYCLQVTHVPWTFGPGTKVDIKR
notes: Human IgG2 / kappa constant regions; also called hMAb1-H4-type heavy chain + hMAb1-L1-type light chain
Regarding B2, the dissociation constant (Kd) in test [1] is 1.8 nM. The binding result in test [2] and in test [3] was “no binding (tested: 10 µg/mL)” throughout.

B3: humanized MAb1 antibody H-2143 (antibody, human IgG2, kappa, V domains shown)
VH: EVQLVESGGGLVQPGGSLRLSCAASGFTFSTYAMSWVRQAPGKRLEWVATISQGGTYTYYPDSVKGRFTISRDNAKNTLYLQMNSLRAEDTAVYYCARLIYYDYLDYWGQGTLVTVSS
VL: DIVMTQSPLSLPVTLGEPASISCRSSQSLENENKNLYLNWYLQKPGQSPQLLIYRVSNRFSGVPDRFSGSGSGTDFTLKISRVEAEDVGVYYCLQVTHVPWTFGPGTKVDIKR
notes: Human IgG2 / kappa constant regions; also called hMAb1-H4-type heavy chain + hMAb1-L2-type light chain
Consider B3, for which, in test [1], the Kd worked out at 1.7 nM. Besides, the binding result in test [2] and in test [3] was “no binding (tested: 10 µg/mL)” throughout.

B4: humanized MAb1 antibody H-1140 (antibody, human IgG2, kappa, V domains shown)
VH: EVQLVESGGGLVQPGGSLRLSCAASGFTFSTYAMSWVRQAPGKGLEWVATISQGGTYTYYPDSVKGRFTISRDNAKNTLYLQMNSLRAEDTAVYYCARLIYYDYLDYWGQGTLVTVSS
VL: DIVMTQSPLSLPVTLGEPASISCRSSQSLENSNGNTYLNWYLQKPGQSPQLLIYRVSNRFSGVPDRFSGSGSGTDFTLKISRVEAEDVGVYYCLQVTHVPWTFGPGTKVDIKR
notes: Human IgG2 / kappa constant regions; also called hMAb1-H2-type heavy chain + hMAb1-L1-type light chain
Take B4: the Kd in test [1] amounted to 3.9 nM.
